The values below come from paper PMC3789969, “The Allosteric Role of the AAA^+ Domain of ChlD Protein from the Magnesium Chelatase of Synechocystis Species PCC 6803*” (The Journal of Biological Chemistry, 2013).

What all share (conditions): both partners purified
In assay [1] the target is T1, His6-ChlD (K49A), Walker A mutant (Synechocystis sp. PCC 6803, UniProt P72772 1-676, K49A).
T1 construct: Magnesium chelatase subunit ChlD, Synechocystis sp; PCC 6803, with K49A in the Walker A motif; Same construct as m2 with one point mutation; also called K49A mutant; source: Rosetta2(DE3) pLysS, site-directed mutant (QuikChange) of pET9a-His6ChlD, purified
The experiment in a line: pull-down; co-purification on Ni(II) chelating Sepharose through His6-ChlD; 2 μM ChlD and 2 μM ChlI, with nucleotide (methods: 5 mM ADP; legend: ATP), 15 mM MgCl2, 50 mM Tricine, 0.3 M glycerol, pH 7.9, room temperature; SDS-PAGE of the resin.

In assay [2] the target is T2, His6-ChlD, wild type, of the magnesium chelatase of Synechocystis sp. PCC 6803 (Synechocystis sp. PCC 6803, UniProt P72772 1-676).
T2 construct: Magnesium chelatase subunit ChlD, Synechocystis sp; PCC 6803; also called wild type ChlD; wild type His6-ChlD; source: Rosetta2(DE3) pLysS, vector pET9a-His6ChlD, purified
The experiment in a line: chelatase assembly titration (steady-state enzyme activity); apparent; ChlI titrated against 0.1 μM His6-ChlD with 0.4 μM ChlH, steady-state rate of MgDIX formation fitted to Equation 3; 50 mM MOPS/KOH, 0.3 M glycerol, 1 mM DTT, 10 mM free Mg2+, I = 0.1 with KCl, 8 μM DIX, pH 7.7, 34 °C.

Assay [3] addresses T3, His6-ChlD (E152Q), Walker B mutant (Synechocystis sp. PCC 6803, UniProt P72772 1-676, E152Q).
T3 construct: Magnesium chelatase subunit ChlD, Synechocystis sp; PCC 6803, with E152Q in the Walker B motif; Same construct as m2 with one point mutation; also called E152Q mutant; source: Rosetta2(DE3) pLysS, site-directed mutant (QuikChange) of pET9a-His6ChlD, purified
The description is as above.

The target in assay [4] is T4, His6-ChlD (R208A), arginine finger mutant (Synechocystis sp. PCC 6803, UniProt P72772 1-676, R208A).
T4 construct: Magnesium chelatase subunit ChlD, Synechocystis sp; PCC 6803, with R208A removing the arginine finger; Same construct as m2 with one point mutation; also called R208A mutant; source: Rosetta2(DE3) pLysS, site-directed mutant (QuikChange) of pET9a-His6ChlD, purified
The description is as above.

The target of assay [5] is T5, His6-ChlD (R289A), Sensor II mutant (Synechocystis sp. PCC 6803, UniProt P72772 1-676, R289A).
T5 construct: Magnesium chelatase subunit ChlD, Synechocystis sp; PCC 6803, with R289A removing the Sensor II arginine; Same construct as m2 with one point mutation; also called R289A mutant; Sensor II arginine mutant; source: Rosetta2(DE3) pLysS, site-directed mutant (QuikChange) of pET9a-His6ChlD, purified
Described as above.

T3 sequence (P72772 whole entry E152Q): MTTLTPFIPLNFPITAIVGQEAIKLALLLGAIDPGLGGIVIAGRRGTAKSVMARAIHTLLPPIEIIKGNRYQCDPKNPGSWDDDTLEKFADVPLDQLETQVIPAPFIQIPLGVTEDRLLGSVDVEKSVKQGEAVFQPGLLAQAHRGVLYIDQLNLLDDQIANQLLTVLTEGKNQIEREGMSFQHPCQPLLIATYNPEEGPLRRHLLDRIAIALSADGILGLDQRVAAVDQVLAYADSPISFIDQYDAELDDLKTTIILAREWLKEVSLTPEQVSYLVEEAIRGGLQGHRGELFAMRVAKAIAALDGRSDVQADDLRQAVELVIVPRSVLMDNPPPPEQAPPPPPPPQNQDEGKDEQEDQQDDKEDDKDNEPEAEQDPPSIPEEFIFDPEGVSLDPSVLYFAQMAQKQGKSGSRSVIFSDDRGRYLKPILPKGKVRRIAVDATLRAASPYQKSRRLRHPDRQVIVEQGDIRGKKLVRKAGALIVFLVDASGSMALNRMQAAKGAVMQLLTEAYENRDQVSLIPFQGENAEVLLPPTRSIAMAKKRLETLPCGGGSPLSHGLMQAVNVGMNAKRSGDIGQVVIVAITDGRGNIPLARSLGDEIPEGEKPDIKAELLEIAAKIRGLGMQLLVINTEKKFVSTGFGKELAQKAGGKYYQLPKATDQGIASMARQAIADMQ
T5 sequence (P72772 whole entry R289A): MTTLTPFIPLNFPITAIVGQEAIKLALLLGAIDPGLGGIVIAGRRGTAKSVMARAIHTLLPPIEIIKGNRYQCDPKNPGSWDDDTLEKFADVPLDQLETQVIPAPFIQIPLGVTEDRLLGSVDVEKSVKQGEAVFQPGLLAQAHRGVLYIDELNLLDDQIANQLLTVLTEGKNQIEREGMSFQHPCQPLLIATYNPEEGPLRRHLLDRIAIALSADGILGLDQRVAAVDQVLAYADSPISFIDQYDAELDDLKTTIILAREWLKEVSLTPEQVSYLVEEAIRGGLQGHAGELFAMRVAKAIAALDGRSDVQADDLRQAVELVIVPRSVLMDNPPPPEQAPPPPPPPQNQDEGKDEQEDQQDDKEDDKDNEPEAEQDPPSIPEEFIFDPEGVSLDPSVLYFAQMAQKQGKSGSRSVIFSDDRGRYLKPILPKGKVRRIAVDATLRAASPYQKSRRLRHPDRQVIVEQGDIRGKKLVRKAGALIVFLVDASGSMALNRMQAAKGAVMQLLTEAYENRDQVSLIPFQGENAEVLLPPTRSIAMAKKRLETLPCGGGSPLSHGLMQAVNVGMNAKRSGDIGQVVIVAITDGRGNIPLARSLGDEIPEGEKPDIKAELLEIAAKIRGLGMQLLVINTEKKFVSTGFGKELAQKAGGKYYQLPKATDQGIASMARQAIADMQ
T2 sequence (P72772 whole entry): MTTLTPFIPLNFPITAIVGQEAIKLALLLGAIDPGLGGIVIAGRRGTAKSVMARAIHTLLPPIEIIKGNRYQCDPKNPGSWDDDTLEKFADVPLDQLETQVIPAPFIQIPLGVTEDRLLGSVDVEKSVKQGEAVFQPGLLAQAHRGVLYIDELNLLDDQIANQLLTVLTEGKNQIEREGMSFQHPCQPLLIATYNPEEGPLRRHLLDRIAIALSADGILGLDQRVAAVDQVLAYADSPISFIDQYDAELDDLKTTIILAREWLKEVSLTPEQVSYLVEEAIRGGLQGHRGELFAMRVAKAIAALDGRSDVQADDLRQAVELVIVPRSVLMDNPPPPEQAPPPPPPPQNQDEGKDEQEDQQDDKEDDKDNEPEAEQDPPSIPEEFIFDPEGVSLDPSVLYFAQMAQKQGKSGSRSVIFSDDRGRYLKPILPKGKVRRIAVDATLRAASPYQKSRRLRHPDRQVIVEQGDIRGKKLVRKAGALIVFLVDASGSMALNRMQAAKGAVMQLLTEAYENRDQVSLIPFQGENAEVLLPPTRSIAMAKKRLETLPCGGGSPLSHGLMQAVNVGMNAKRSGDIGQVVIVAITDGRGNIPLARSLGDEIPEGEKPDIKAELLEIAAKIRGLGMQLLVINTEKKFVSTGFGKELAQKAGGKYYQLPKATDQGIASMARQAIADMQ
T4 sequence (P72772 whole entry R208A): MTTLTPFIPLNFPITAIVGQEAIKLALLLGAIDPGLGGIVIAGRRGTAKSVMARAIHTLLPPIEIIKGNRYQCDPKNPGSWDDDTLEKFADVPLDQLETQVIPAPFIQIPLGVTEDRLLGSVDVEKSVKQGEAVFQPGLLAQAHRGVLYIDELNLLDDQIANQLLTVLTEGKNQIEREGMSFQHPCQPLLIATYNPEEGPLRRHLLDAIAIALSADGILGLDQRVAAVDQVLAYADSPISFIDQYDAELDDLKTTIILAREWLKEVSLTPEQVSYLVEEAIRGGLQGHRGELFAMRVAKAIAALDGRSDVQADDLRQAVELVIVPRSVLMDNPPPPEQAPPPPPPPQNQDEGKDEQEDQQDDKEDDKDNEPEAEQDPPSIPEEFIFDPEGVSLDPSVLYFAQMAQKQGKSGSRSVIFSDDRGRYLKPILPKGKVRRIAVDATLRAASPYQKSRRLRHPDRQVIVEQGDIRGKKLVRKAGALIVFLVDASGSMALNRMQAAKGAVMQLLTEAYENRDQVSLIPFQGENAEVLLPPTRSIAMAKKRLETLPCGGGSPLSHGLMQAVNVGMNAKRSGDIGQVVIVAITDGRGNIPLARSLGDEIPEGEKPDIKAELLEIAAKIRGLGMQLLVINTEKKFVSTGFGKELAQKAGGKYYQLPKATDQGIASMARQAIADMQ
T1 sequence (P72772 whole entry K49A): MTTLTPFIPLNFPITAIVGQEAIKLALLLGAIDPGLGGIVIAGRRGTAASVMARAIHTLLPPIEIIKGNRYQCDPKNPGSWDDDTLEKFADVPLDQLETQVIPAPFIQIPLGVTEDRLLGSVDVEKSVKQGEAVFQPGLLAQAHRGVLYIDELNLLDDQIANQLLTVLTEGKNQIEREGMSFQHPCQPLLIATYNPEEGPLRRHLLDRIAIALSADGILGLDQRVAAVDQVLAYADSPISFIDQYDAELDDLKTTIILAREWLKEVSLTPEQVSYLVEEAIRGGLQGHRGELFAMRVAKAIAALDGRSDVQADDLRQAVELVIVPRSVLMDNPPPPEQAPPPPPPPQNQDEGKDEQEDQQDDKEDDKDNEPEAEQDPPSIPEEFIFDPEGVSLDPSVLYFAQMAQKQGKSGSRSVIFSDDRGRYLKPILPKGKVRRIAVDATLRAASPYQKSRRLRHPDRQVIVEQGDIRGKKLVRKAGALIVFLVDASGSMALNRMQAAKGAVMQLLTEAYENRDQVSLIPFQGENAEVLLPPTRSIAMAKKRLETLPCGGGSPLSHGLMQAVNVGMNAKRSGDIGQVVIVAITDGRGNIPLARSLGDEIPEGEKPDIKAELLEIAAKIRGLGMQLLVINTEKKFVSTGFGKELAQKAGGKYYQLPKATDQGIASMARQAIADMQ

B1: ChlI protein of the magnesium chelatase of Synechocystis sp. PCC 6803 (natural protein, UniProt P51634 1-357, looked up)
chain: MTATLAAPSKTRRVVFPFTAIVGQDEMKLALLLNVIDPKIGGVMIMGDRGTGKSTTIRALADLLPEIEVVANDPFNSSPSDPEMMSEEVRIRVDSQEPLSIVKKKVTMVDLPLGATEDRVCGTIDIEKALSEGVKAFEPGLLAKANRGILYVDEVNLLDDHLVDVLLDSAAGGWNTVEREGISIRHPARFVLVGSGNPEEGELRPQLLDRFGMHAEIRTVREPELRVKIVEQRTEFDQNPHPFCDQYQTEQEALQAKIVNAQNLLPQVTIDYDYRVKVSEVCAELDVDGLRGDIVTNRAAKALAAFEGRTEVTVDDISRVIVLCLRHRLRKDPLESIDSGSKVEKVFKRVFGVVDEA
notes: Magnesium chelatase subunit ChlI, Synechocystis sp; PCC 6803; no tag is named for ChlI; also called wild type ChlI; source: BL21(DE3), vector pET9a-ChlI, autoinducing medium ZYM-5052, purified
As for B1, the binding result in assay [1] is “binds”. Also, the Kd in assay [2] came out at 0.17 nM; in assay [3], 0.35 nM; in assay [4], 14 nM; in assay [5], 52 nM. The “nd (concentration of binding sites for ChlI)” value in assay [2] came out at 0.23 µM; in assay [3], 0.24 µM; in assay [4] it was 0.2 µM; in assay [5], 0.19 µM.
